# Source: patent publication US20260167699A1 (Chugai, published 2026)
# Target: T1, FcγRIIIa extracellular domain, C-terminal His tag (human, UniProt P08637 17-208)
# T1 construct: extracellular domain; also called 3a
# Assay: SPR, binding activity relative to GpH7-A5/GpH7-B3/GpL16-k0 (=100)
# T1 sequence (P08637 other isoform, or with tags, fused parts or gaps): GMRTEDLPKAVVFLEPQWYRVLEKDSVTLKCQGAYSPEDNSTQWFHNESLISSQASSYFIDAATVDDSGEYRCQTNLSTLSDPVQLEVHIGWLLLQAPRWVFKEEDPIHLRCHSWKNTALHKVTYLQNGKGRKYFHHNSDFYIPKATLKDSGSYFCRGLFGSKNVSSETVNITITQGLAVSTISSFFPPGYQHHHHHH
row,Binder,He/Con 3a
1,"GpH7-A5/GpH7-B3 variant K326_07I/GpL16-k0 (antibody, human IgG1, kappa, He Ab; copies: 1 + 1 + 2) heavy 1: not shown heavy 2: not shown light: DIVMTQSPLSLPVTPGEPASISCQASESLVHSNRNTYLHWYLQKPGQSPQLLIYKVSNRFSGVPDRFSGSGSGTDFTLKISRVEAEDVGVYYCSQNTHVPPTFGQGTKVEIERTVAAPSVFIFPPSDEQLKSGTASVVCLLNNFYPREAKVQWKVDNALQSGNSQESVTEQDSKDSTYSLSSTLTLSKADYEKHKVYACEVTHQGLSSPVTKSFNRGEC",153%
2,"GpH7-A5/GpH7-B3 variant K326_19Q/GpL16-k0 (antibody, human IgG1, kappa, He Ab; copies: 1 + 1 + 2) heavy 1: not shown heavy 2: not shown light: DIVMTQSPLSLPVTPGEPASISCQASESLVHSNRNTYLHWYLQKPGQSPQLLIYKVSNRFSGVPDRFSGSGSGTDFTLKISRVEAEDVGVYYCSQNTHVPPTFGQGTKVEIERTVAAPSVFIFPPSDEQLKSGTASVVCLLNNFYPREAKVQWKVDNALQSGNSQESVTEQDSKDSTYSLSSTLTLSKADYEKHKVYACEVTHQGLSSPVTKSFNRGEC",117%
3,"GpH7-A5/GpH7-B3 variant K326_13S/GpL16-k0 (antibody, human IgG1, kappa, He Ab; copies: 1 + 1 + 2) heavy 1: not shown heavy 2: not shown light: DIVMTQSPLSLPVTPGEPASISCQASESLVHSNRNTYLHWYLQKPGQSPQLLIYKVSNRFSGVPDRFSGSGSGTDFTLKISRVEAEDVGVYYCSQNTHVPPTFGQGTKVEIERTVAAPSVFIFPPSDEQLKSGTASVVCLLNNFYPREAKVQWKVDNALQSGNSQESVTEQDSKDSTYSLSSTLTLSKADYEKHKVYACEVTHQGLSSPVTKSFNRGEC",118%
4,"GpH7-A5/GpH7-B3 variant L234_04F/GpL16-k0 (antibody, human IgG1, kappa, He Ab; copies: 1 + 1 + 2) heavy 1: not shown heavy 2: not shown light: DIVMTQSPLSLPVTPGEPASISCQASESLVHSNRNTYLHWYLQKPGQSPQLLIYKVSNRFSGVPDRFSGSGSGTDFTLKISRVEAEDVGVYYCSQNTHVPPTFGQGTKVEIERTVAAPSVFIFPPSDEQLKSGTASVVCLLNNFYPREAKVQWKVDNALQSGNSQESVTEQDSKDSTYSLSSTLTLSKADYEKHKVYACEVTHQGLSSPVTKSFNRGEC",114%
5,"GpH7-A5/GpH7-B3 variant K326_15Y/GpL16-k0 (antibody, human IgG1, kappa, He Ab; copies: 1 + 1 + 2) heavy 1: not shown heavy 2: not shown light: DIVMTQSPLSLPVTPGEPASISCQASESLVHSNRNTYLHWYLQKPGQSPQLLIYKVSNRFSGVPDRFSGSGSGTDFTLKISRVEAEDVGVYYCSQNTHVPPTFGQGTKVEIERTVAAPSVFIFPPSDEQLKSGTASVVCLLNNFYPREAKVQWKVDNALQSGNSQESVTEQDSKDSTYSLSSTLTLSKADYEKHKVYACEVTHQGLSSPVTKSFNRGEC",124%
6,"GpH7-A5/GpH7-B3 variant K326_09D/GpL16-k0 (antibody, human IgG1, kappa, He Ab; copies: 1 + 1 + 2) heavy 1: not shown heavy 2: not shown light: DIVMTQSPLSLPVTPGEPASISCQASESLVHSNRNTYLHWYLQKPGQSPQLLIYKVSNRFSGVPDRFSGSGSGTDFTLKISRVEAEDVGVYYCSQNTHVPPTFGQGTKVEIERTVAAPSVFIFPPSDEQLKSGTASVVCLLNNFYPREAKVQWKVDNALQSGNSQESVTEQDSKDSTYSLSSTLTLSKADYEKHKVYACEVTHQGLSSPVTKSFNRGEC",148%
7,"GpH7-A5/GpH7-B3 variant K326_10E/GpL16-k0 (antibody, human IgG1, kappa, He Ab; copies: 1 + 1 + 2) heavy 1: not shown heavy 2: not shown light: DIVMTQSPLSLPVTPGEPASISCQASESLVHSNRNTYLHWYLQKPGQSPQLLIYKVSNRFSGVPDRFSGSGSGTDFTLKISRVEAEDVGVYYCSQNTHVPPTFGQGTKVEIERTVAAPSVFIFPPSDEQLKSGTASVVCLLNNFYPREAKVQWKVDNALQSGNSQESVTEQDSKDSTYSLSSTLTLSKADYEKHKVYACEVTHQGLSSPVTKSFNRGEC",138%
8,"GpH7-A5/GpH7-B3 variant K326_14T/GpL16-k0 (antibody, human IgG1, kappa, He Ab; copies: 1 + 1 + 2) heavy 1: not shown heavy 2: not shown light: DIVMTQSPLSLPVTPGEPASISCQASESLVHSNRNTYLHWYLQKPGQSPQLLIYKVSNRFSGVPDRFSGSGSGTDFTLKISRVEAEDVGVYYCSQNTHVPPTFGQGTKVEIERTVAAPSVFIFPPSDEQLKSGTASVVCLLNNFYPREAKVQWKVDNALQSGNSQESVTEQDSKDSTYSLSSTLTLSKADYEKHKVYACEVTHQGLSSPVTKSFNRGEC",140%
9,"GpH7-A5/GpH7-B3 variant L234_07I/GpL16-k0 (antibody, human IgG1, kappa, He Ab; copies: 1 + 1 + 2) heavy 1: not shown heavy 2: not shown light: DIVMTQSPLSLPVTPGEPASISCQASESLVHSNRNTYLHWYLQKPGQSPQLLIYKVSNRFSGVPDRFSGSGSGTDFTLKISRVEAEDVGVYYCSQNTHVPPTFGQGTKVEIERTVAAPSVFIFPPSDEQLKSGTASVVCLLNNFYPREAKVQWKVDNALQSGNSQESVTEQDSKDSTYSLSSTLTLSKADYEKHKVYACEVTHQGLSSPVTKSFNRGEC",99.5%
10,"GpH7-A5/GpH7-B3 variant K326_18N/GpL16-k0 (antibody, human IgG1, kappa, He Ab; copies: 1 + 1 + 2) heavy 1: not shown heavy 2: not shown light: DIVMTQSPLSLPVTPGEPASISCQASESLVHSNRNTYLHWYLQKPGQSPQLLIYKVSNRFSGVPDRFSGSGSGTDFTLKISRVEAEDVGVYYCSQNTHVPPTFGQGTKVEIERTVAAPSVFIFPPSDEQLKSGTASVVCLLNNFYPREAKVQWKVDNALQSGNSQESVTEQDSKDSTYSLSSTLTLSKADYEKHKVYACEVTHQGLSSPVTKSFNRGEC",134%
11,"GpH7-A5/GpH7-B3 variant L234_02A/GpL16-k0 (antibody, human IgG1, kappa, He Ab; copies: 1 + 1 + 2) heavy 1: not shown heavy 2: not shown light: DIVMTQSPLSLPVTPGEPASISCQASESLVHSNRNTYLHWYLQKPGQSPQLLIYKVSNRFSGVPDRFSGSGSGTDFTLKISRVEAEDVGVYYCSQNTHVPPTFGQGTKVEIERTVAAPSVFIFPPSDEQLKSGTASVVCLLNNFYPREAKVQWKVDNALQSGNSQESVTEQDSKDSTYSLSSTLTLSKADYEKHKVYACEVTHQGLSSPVTKSFNRGEC",69.7%
12,"GpH7-A5/GpH7-B3 variant L234_03V/GpL16-k0 (antibody, human IgG1, kappa, He Ab; copies: 1 + 1 + 2) heavy 1: not shown heavy 2: not shown light: DIVMTQSPLSLPVTPGEPASISCQASESLVHSNRNTYLHWYLQKPGQSPQLLIYKVSNRFSGVPDRFSGSGSGTDFTLKISRVEAEDVGVYYCSQNTHVPPTFGQGTKVEIERTVAAPSVFIFPPSDEQLKSGTASVVCLLNNFYPREAKVQWKVDNALQSGNSQESVTEQDSKDSTYSLSSTLTLSKADYEKHKVYACEVTHQGLSSPVTKSFNRGEC",88.3%
13,"GpH7-A5/GpH7-B3 variant K326_16H/GpL16-k0 (antibody, human IgG1, kappa, He Ab; copies: 1 + 1 + 2) heavy 1: not shown heavy 2: not shown light: DIVMTQSPLSLPVTPGEPASISCQASESLVHSNRNTYLHWYLQKPGQSPQLLIYKVSNRFSGVPDRFSGSGSGTDFTLKISRVEAEDVGVYYCSQNTHVPPTFGQGTKVEIERTVAAPSVFIFPPSDEQLKSGTASVVCLLNNFYPREAKVQWKVDNALQSGNSQESVTEQDSKDSTYSLSSTLTLSKADYEKHKVYACEVTHQGLSSPVTKSFNRGEC",106%
14,"GpH7-A5/GpH7-B3 variant K326_20W/GpL16-k0 (antibody, human IgG1, kappa, He Ab; copies: 1 + 1 + 2) heavy 1: not shown heavy 2: not shown light: DIVMTQSPLSLPVTPGEPASISCQASESLVHSNRNTYLHWYLQKPGQSPQLLIYKVSNRFSGVPDRFSGSGSGTDFTLKISRVEAEDVGVYYCSQNTHVPPTFGQGTKVEIERTVAAPSVFIFPPSDEQLKSGTASVVCLLNNFYPREAKVQWKVDNALQSGNSQESVTEQDSKDSTYSLSSTLTLSKADYEKHKVYACEVTHQGLSSPVTKSFNRGEC",93.7%
15,"GpH7-A5/GpH7-B3 variant L234_09D/GpL16-k0 (antibody, human IgG1, kappa, He Ab; copies: 1 + 1 + 2) heavy 1: not shown heavy 2: not shown light: DIVMTQSPLSLPVTPGEPASISCQASESLVHSNRNTYLHWYLQKPGQSPQLLIYKVSNRFSGVPDRFSGSGSGTDFTLKISRVEAEDVGVYYCSQNTHVPPTFGQGTKVEIERTVAAPSVFIFPPSDEQLKSGTASVVCLLNNFYPREAKVQWKVDNALQSGNSQESVTEQDSKDSTYSLSSTLTLSKADYEKHKVYACEVTHQGLSSPVTKSFNRGEC",113%
16,"GpH7-A5/GpH7-B3 variant L234_06M/GpL16-k0 (antibody, human IgG1, kappa, He Ab; copies: 1 + 1 + 2) heavy 1: not shown heavy 2: not shown light: DIVMTQSPLSLPVTPGEPASISCQASESLVHSNRNTYLHWYLQKPGQSPQLLIYKVSNRFSGVPDRFSGSGSGTDFTLKISRVEAEDVGVYYCSQNTHVPPTFGQGTKVEIERTVAAPSVFIFPPSDEQLKSGTASVVCLLNNFYPREAKVQWKVDNALQSGNSQESVTEQDSKDSTYSLSSTLTLSKADYEKHKVYACEVTHQGLSSPVTKSFNRGEC",82.9%
17,"GpH7-A5/GpH7-B3 variant K326_08L/GpL16-k0 (antibody, human IgG1, kappa, He Ab; copies: 1 + 1 + 2) heavy 1: not shown heavy 2: not shown light: DIVMTQSPLSLPVTPGEPASISCQASESLVHSNRNTYLHWYLQKPGQSPQLLIYKVSNRFSGVPDRFSGSGSGTDFTLKISRVEAEDVGVYYCSQNTHVPPTFGQGTKVEIERTVAAPSVFIFPPSDEQLKSGTASVVCLLNNFYPREAKVQWKVDNALQSGNSQESVTEQDSKDSTYSLSSTLTLSKADYEKHKVYACEVTHQGLSSPVTKSFNRGEC",126%
18,"GpH7-A5/GpH7-B3 variant L234_05P/GpL16-k0 (antibody, human IgG1, kappa, He Ab; copies: 1 + 1 + 2) heavy 1: not shown heavy 2: not shown light: DIVMTQSPLSLPVTPGEPASISCQASESLVHSNRNTYLHWYLQKPGQSPQLLIYKVSNRFSGVPDRFSGSGSGTDFTLKISRVEAEDVGVYYCSQNTHVPPTFGQGTKVEIERTVAAPSVFIFPPSDEQLKSGTASVVCLLNNFYPREAKVQWKVDNALQSGNSQESVTEQDSKDSTYSLSSTLTLSKADYEKHKVYACEVTHQGLSSPVTKSFNRGEC",85.1%
19,"GpH7-A5/GpH7-B3 variant K326_12R/GpL16-k0 (antibody, human IgG1, kappa, He Ab; copies: 1 + 1 + 2) heavy 1: not shown heavy 2: not shown light: DIVMTQSPLSLPVTPGEPASISCQASESLVHSNRNTYLHWYLQKPGQSPQLLIYKVSNRFSGVPDRFSGSGSGTDFTLKISRVEAEDVGVYYCSQNTHVPPTFGQGTKVEIERTVAAPSVFIFPPSDEQLKSGTASVVCLLNNFYPREAKVQWKVDNALQSGNSQESVTEQDSKDSTYSLSSTLTLSKADYEKHKVYACEVTHQGLSSPVTKSFNRGEC",101%
20,"GpH7-A5/GpH7-B3 variant L234_13S/GpL16-k0 (antibody, human IgG1, kappa, He Ab; copies: 1 + 1 + 2) heavy 1: not shown heavy 2: not shown light: DIVMTQSPLSLPVTPGEPASISCQASESLVHSNRNTYLHWYLQKPGQSPQLLIYKVSNRFSGVPDRFSGSGSGTDFTLKISRVEAEDVGVYYCSQNTHVPPTFGQGTKVEIERTVAAPSVFIFPPSDEQLKSGTASVVCLLNNFYPREAKVQWKVDNALQSGNSQESVTEQDSKDSTYSLSSTLTLSKADYEKHKVYACEVTHQGLSSPVTKSFNRGEC",68.1%
21,"GpH7-A5/GpH7-B3 variant L234_10E/GpL16-k0 (antibody, human IgG1, kappa, He Ab; copies: 1 + 1 + 2) heavy 1: not shown heavy 2: not shown light: DIVMTQSPLSLPVTPGEPASISCQASESLVHSNRNTYLHWYLQKPGQSPQLLIYKVSNRFSGVPDRFSGSGSGTDFTLKISRVEAEDVGVYYCSQNTHVPPTFGQGTKVEIERTVAAPSVFIFPPSDEQLKSGTASVVCLLNNFYPREAKVQWKVDNALQSGNSQESVTEQDSKDSTYSLSSTLTLSKADYEKHKVYACEVTHQGLSSPVTKSFNRGEC",111%
22,"GpH7-A5/GpH7-B3 variant L234_01G/GpL16-k0 (antibody, human IgG1, kappa, He Ab; copies: 1 + 1 + 2) heavy 1: not shown heavy 2: not shown light: DIVMTQSPLSLPVTPGEPASISCQASESLVHSNRNTYLHWYLQKPGQSPQLLIYKVSNRFSGVPDRFSGSGSGTDFTLKISRVEAEDVGVYYCSQNTHVPPTFGQGTKVEIERTVAAPSVFIFPPSDEQLKSGTASVVCLLNNFYPREAKVQWKVDNALQSGNSQESVTEQDSKDSTYSLSSTLTLSKADYEKHKVYACEVTHQGLSSPVTKSFNRGEC",55.8%
